We go through four molecules from US20120009179A1 (Kyowa Kirin, published 2012).

Usually kon stands for the rate constant with which the complex forms. A low value points to slow association. By koff is commonly meant the first-order rate constant of dissociation. Low values mean a long-lived complex, high ones a short-lived complex.

In assay [1] the target is T1, Aβ monomers prepared from Biotin-beta-Amyloid, Human 1-40 (human, UniProt P05067 672-711, Biotin (position not stated; printed as "Biotin-beta-Amyloid, Human 1-40")).
T1 construct: domain: beta-Amyloid, Human 1-40; Captured on an SA sensor chip through biotin; also called amyloid β protein monomer
T1 sequence (P05067 672-711 limits assumed): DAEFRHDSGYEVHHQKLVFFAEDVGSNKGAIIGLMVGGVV
In words: SPR (Biacore T100), biotin-Aβ1-40 monomers captured on SA chip, antibody injected. The procedure: In order to analyze the binding activity of the respective anti-Aβ oligomer humanized antibodies (HV0LV0, HV0LV2a, HV0LV4 and HV12LV4) against Aβ monomers, the binding activity was measured in the same manner as in (1) of this Example. In addition, the binding activity of anti-Aβ antibody 6E10 (manufactured by CONVANCE) was measured as a control antibody.
The Aβ monomers obtained in (2) of Example (2) were immobilized to the SA sensor chip (manufactured by GE Healthcare Bio-sciences) by the biotin capturing method. Onto the chip to which the Aβ monomers were immobilized, samples for measurement, which were prepared to have 5 levels of density by diluting from 30 μg/mL by doubling dilution in a stepwise manner (6E10, HV0LV0, HV0LV2a, HV0LV4 and HV12LV4), were sequentially injected and measured in the order from the lower density based on the automatic program of the multi-kinetics mode.

Assay [2] deals with T2, Aβ oligomers prepared from Amyloid β-protein, Human 1-42 peptide (human, UniProt P05067 672-713).
T2 construct: domain: Amyloid β-protein, Human 1-42 peptide; Non-covalent oligomer of synthetic Aβ1-42; Immobilized on a CM5 chip by amine coupling; also called amyloid β protein oligomer
T2 sequence (P05067 672-713 limits assumed): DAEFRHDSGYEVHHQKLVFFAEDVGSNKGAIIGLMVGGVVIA
In words: SPR (Biacore T100), Aβ oligomers amine-coupled on CM5 chip, antibody injected, Bivalent Analyte model (ka1). The procedure: (§1) All the following operations were performed using Biocore T100 (manufactured by GE Healthcare Bio-sciences). The Aβ oligomers obtained in (1) of Example 2 were immobilized to the CM5 sensor chip (GE Healthcare Bio-sciences) using the amine coupling method.
(§2) Onto the chip to which the Aβ oligomers were immobilized for measurement samples prepared to have 8 levels of density by diluting from 30 μg/mL by doubling dilution in a stepwise manner (HV0LV0, HV0LV2a, HV0LV4 and HV12LV4) was sequentially injected and measured in the order from the lower density based on the automatic program of the multi-kinetics.
(§3) Using the analysis software attached to the device, Biacore T100 Evaluation software (manufactured by Biacore Life Science), analysis was carried out with the Bivalent Analyte model to calculate the binding rate constant ka and the dissociation rate constant kd of each of the antibody against Aβ oligomers.
In general terms: Surface plasmon resonance follows binding to a sensor surface in real time, without labels.

For assay [3], the target named is T2, Aβ oligomers prepared from Amyloid …. The assay is described as follows: SPR (Biacore T100), Aβ oligomers amine-coupled on CM5 chip, antibody injected, Bivalent Analyte model (kd1). The procedure:
as §1, §2, §3

For assay [4] the target is unchanged. The assay is described as follows: SPR (Biacore T100), Aβ oligomers amine-coupled on CM5 chip, antibody injected, Bivalent Analyte model (kd1/ka1). The procedure: as §1, §2, §3

B1: anti-Aβ oligomer humanized antibody HV0LV2a (antibody, V domains shown)
VH: QVQLVQSGAEVKKPGASVKVSCKASGYTFTSYWMHWVRQAPGQGLEWMGEINPRNGGTNNNENFKRRVTITADTSTSTAYMELSSLRSEDTAVYYCARDGNYDPFAYWGQGTLVTVSS
VL: DIVMTQSPLSLPVTPGEPASISCRSSQSLVHSNGNTYLHWYLQKPGQSPKLLIYKVSNRFSGVPDRFSGSGSGTDFTLKISRVEAEDVGVYFCSQSTHVPPYTFGQGTKLEIK
notes: also called 6E4HV0 + LV2a
Turning to B1, the binding result in assay [1] is recorded as “no binding (tested: 30 µg/mL highest of 5 two-fold dilutions)”. The molecule further yielded an on-rate (kon) in assay [2] of 6400 M⁻¹ s⁻¹. Further, in assay [3], the koff worked out at 0.00039 s⁻¹. Also, in assay [4], the Kd came to 61 nM.

B2: anti-Aβ oligomer humanized antibody HV12LV4 (antibody, V domains shown)
VH: QVQLVQSGAEVVKPGASVKLSCKASGYTFTSYWMHWVKLAPGQGFEWIGEINPRNGGTNNNENFKRKATLTVDKSTSTAYMELSSLRSEDTAVYYCTRDGNYDPFAYWGQGTLVTVSS
VL: DVVMTQSPLSLPVTLGEPASISCRSSQSLVHSNGNTYLHWYLQKPGQSPKLLIYKVSNRFSGVPDRFSGSGSGTDFTLKISRVEAEDVGVYFCSQSTHVPPYTFGQGTKLEIK
B2: the binding result in assay [1] was “no binding (tested: 30 µg/mL highest of 5 two-fold dilutions)”. Moreover, the kon in assay [2] stood at 2700 M⁻¹ s⁻¹. For the same molecule, the koff in assay [3] was 0.00081 s⁻¹. In addition, the Kd in assay [4] came out at 300 nM.

B3: anti-Aβ oligomer humanized antibody HV0LV0 (antibody, V domains shown)
VH: QVQLVQSGAEVKKPGASVKVSCKASGYTFTSYWMHWVRQAPGQGLEWMGEINPRNGGTNNNENFKRRVTITADTSTSTAYMELSSLRSEDTAVYYCARDGNYDPFAYWGQGTLVTVSS
VL: DIVMTQSPLSLPVTPGEPASISCRSSQSLVHSNGNTYLHWYLQKPGQSPQLLIYKVSNRFSGVPDRFSGSGSGTDFTLKISRVEAEDVGVYYCSQSTHVPPYTFGQGTKLEIK
notes: Whole humanized antibody expressed from vector pKANTEX93 (WO 97/10354) with human constant regions; Produced in FUT8 knockout CHO/DG44 cells (no core fucose); also called 6E4HV0 + 6E4LV0
As for B3, in assay [1], the binding result was “no binding (tested: 30 µg/mL highest of 5 two-fold dilutions)”. This molecule also registered a kon in assay [2] of 17000 M⁻¹ s⁻¹. The same molecule yielded a koff in assay [3] of 0.00069 s⁻¹. The Kd in assay [4] was found to be 40 nM.

B4: anti-Aβ oligomer humanized antibody HV0LV4 (antibody, V domains shown)
VH: QVQLVQSGAEVKKPGASVKVSCKASGYTFTSYWMHWVRQAPGQGLEWMGEINPRNGGTNNNENFKRRVTITADTSTSTAYMELSSLRSEDTAVYYCARDGNYDPFAYWGQGTLVTVSS
VL: DVVMTQSPLSLPVTLGEPASISCRSSQSLVHSNGNTYLHWYLQKPGQSPKLLIYKVSNRFSGVPDRFSGSGSGTDFTLKISRVEAEDVGVYFCSQSTHVPPYTFGQGTKLEIK
notes: also called 6E4HV0 + LV4
Consider B4, for which the binding result in assay [1] was “no binding (tested: 30 µg/mL highest of 5 two-fold dilutions)”. In addition, the kon in assay [2] is 7000 M⁻¹ s⁻¹. Moreover, the koff in assay [3] amounted to 0.0005 s⁻¹. The molecule further returned a Kd in assay [4] of 71 nM.
